In publication PMC9482650, “Quantitative fragmentomics allow affinity mapping of interactomes” (Nature Communications, 2022):

T1: APBA1_1, Q02410
T1 sequence (Q02410 651-752, limits assumed, looked up): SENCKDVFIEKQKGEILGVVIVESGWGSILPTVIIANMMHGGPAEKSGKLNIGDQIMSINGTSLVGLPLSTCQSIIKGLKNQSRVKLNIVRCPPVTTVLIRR

T2: APBA2_1, Q99767
T2 sequence (Q99767 563-664, limits assumed, looked up): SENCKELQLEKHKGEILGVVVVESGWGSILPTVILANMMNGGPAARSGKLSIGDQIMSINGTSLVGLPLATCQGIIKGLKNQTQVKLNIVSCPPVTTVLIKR

T3: APBA2_2, Q99767
T3 sequence (Q99767 654-744, limits assumed, looked up): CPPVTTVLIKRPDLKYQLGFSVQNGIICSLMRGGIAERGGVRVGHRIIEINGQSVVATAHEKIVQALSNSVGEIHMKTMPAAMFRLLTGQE

T4: ARHGEF11, O15085
T4 sequence (O15085 42-136, limits assumed, looked up): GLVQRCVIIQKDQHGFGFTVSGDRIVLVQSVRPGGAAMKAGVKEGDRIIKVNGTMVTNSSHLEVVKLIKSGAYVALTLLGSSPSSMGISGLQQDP

T5: DFNB31_1, Q9P202
T5 sequence (Q9P202 135-233, limits assumed, looked up): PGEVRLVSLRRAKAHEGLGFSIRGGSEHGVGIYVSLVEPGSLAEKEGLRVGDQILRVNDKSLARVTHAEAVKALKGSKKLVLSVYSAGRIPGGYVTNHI

T6: DLG3_3, Q92796
T6 sequence (Q92796 374-475, limits assumed, looked up): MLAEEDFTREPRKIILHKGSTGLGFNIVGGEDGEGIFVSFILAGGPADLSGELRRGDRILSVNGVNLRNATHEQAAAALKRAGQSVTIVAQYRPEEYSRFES

T7: GRIP1_2, Q9Y3R0
T7 sequence (Q9Y3R0 145-248, limits assumed, looked up): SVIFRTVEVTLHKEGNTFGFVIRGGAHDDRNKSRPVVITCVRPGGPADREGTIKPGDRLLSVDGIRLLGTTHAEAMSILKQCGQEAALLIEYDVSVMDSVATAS

T8: GRIP1_5, Q9Y3R0
T8 sequence (Q9Y3R0 568-668, limits assumed, looked up): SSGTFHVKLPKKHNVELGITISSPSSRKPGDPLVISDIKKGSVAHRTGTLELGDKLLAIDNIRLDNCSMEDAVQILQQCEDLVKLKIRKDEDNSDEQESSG

T9: MPDZ_5, O75970
T9 sequence (O75970 695-796, limits assumed, looked up): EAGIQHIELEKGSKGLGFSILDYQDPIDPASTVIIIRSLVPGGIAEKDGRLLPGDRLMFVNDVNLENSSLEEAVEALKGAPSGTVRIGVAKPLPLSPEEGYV

T10: MPP2, Q14168
T10 sequence (Q14168 180-250, limits assumed, looked up): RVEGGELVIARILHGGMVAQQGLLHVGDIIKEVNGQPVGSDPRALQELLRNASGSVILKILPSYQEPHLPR

T11: NHERF3_3, Q5T2W1
T11 sequence (Q5T2W1 238-333, limits assumed, looked up): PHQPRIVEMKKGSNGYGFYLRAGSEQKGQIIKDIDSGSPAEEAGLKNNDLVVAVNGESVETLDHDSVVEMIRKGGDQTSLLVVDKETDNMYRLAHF

T12: SNTB1, Q13884
T12 sequence (Q13884 107-205, limits assumed, looked up): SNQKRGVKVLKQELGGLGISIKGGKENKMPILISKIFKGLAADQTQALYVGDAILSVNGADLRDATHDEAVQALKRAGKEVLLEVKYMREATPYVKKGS


The binders below were run against T1, APBA1_1, Q02410 (assay: holdup assay). Conditions: plain residues with an end cap or a label only (N-terminal biotin on a linker: ado-ado).
Parameters: key: below the threshold = too weak to quantify, mostly under pKd 3.1 to 4

pKd	Binder
below the threshold	PEEGKKQSQC [GAGE12J, A6NER3]

The binders below were run against T2, APBA2_1, Q99767 (assay: holdup assay). Conditions: plain residues with an end cap or a label only (N-terminal biotin on a linker: ado-ado).
Parameters: key: below the threshold = too weak to quantify, mostly under pKd 3.1 to 4

pKd	Binder
below the threshold	PEEGKKQSQC [GAGE12J, A6NER3]

What follows are binders tested against T3, APBA2_2, Q99767 (assay: holdup assay). Conditions: plain residues with an end cap or a label only (N-terminal biotin on a linker: ado-ado).
Parameters: key: below the threshold = too weak to quantify, mostly under pKd 3.1 to 4

pKd	Binder
below the threshold	PEEGKKQSQC [GAGE12J, A6NER3]

These binders were tested against T4, ARHGEF11, O15085 (assay: holdup assay). Conditions: plain residues with an end cap or a label only (N-terminal biotin on a linker: ado-ado).
Parameters: key: below the threshold = too weak to quantify, mostly under pKd 3.1 to 4

pKd	Binder
3.62	PEEGKKQSQC [GAGE12J, A6NER3]

Each binder was assayed against CASK, O14936 (assay: holdup assay). Conditions: plain residues with an end cap or a label only (N-terminal biotin on a linker: ado-ado).
Parameters: key: below the threshold = too weak to quantify, mostly under pKd 3.1 to 4

Chain of CASK, O14936 (O14936 487-570): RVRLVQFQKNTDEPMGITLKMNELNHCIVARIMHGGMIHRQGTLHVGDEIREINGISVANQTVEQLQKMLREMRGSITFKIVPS

pKd	Binder
below the threshold	PEEGKKQSQC [GAGE12J, A6NER3]

The binders below were run against T5, DFNB31_1, Q9P202 (assay: holdup assay). Conditions: plain residues with an end cap or a label only (N-terminal biotin on a linker: ado-ado).
Parameters: key: below the threshold = too weak to quantify, mostly under pKd 3.1 to 4

pKd	Binder
below the threshold	PEEGKKQSQC [GAGE12J, A6NER3]

These binders were tested against DLG1_2, Q12959 (assay: holdup assay). Conditions: plain residues with an end cap or a label only (N-terminal biotin on a linker: ado-ado).
Parameters: key: below the threshold = too weak to quantify, mostly under pKd 3.1 to 4

Chain of DLG1_2, Q12959 (Q12959 314-412): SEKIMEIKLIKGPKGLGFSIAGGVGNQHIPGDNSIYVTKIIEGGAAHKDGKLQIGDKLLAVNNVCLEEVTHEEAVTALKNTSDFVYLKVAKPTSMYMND

pKd	Binder
below the threshold	PEEGKKQSQC [GAGE12J, A6NER3]

These binders were tested against DLG1_3, Q12959 (assay: holdup assay). Conditions: plain residues with an end cap or a label only (N-terminal biotin on a linker: ado-ado).
Parameters: key: below the threshold = too weak to quantify, mostly under pKd 3.1 to 4

Chain of DLG1_3, Q12959 (Q12959 457-571): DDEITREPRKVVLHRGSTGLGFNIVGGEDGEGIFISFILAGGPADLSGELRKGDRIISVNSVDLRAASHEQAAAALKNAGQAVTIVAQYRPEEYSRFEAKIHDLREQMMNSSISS

pKd	Binder
below the threshold	PEEGKKQSQC [GAGE12J, A6NER3]

These binders were tested against T6, DLG3_3, Q92796 (assay: holdup assay). Conditions: plain residues with an end cap or a label only (N-terminal biotin on a linker: ado-ado).
Parameters: key: below the threshold = too weak to quantify, mostly under pKd 3.1 to 4

pKd	Binder
below the threshold	PEEGKKQSQC [GAGE12J, A6NER3]

These binders were tested against DLG4_1, P78352 (assay: holdup assay). Conditions: plain residues with an end cap or a label only (N-terminal biotin on a linker: ado-ado).
Parameters: key: below the threshold = too weak to quantify, mostly under pKd 3.1 to 4

Chain of DLG4_1, P78352 (P78352 62-152): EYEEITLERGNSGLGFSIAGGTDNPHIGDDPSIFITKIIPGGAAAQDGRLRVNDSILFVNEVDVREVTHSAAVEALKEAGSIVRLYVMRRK

pKd	Binder
below the threshold	PEEGKKQSQC [GAGE12J, A6NER3]

Each binder was assayed against FRMPD4, Q14CM0 (assay: holdup assay). Conditions: plain residues with an end cap or a label only (N-terminal biotin on a linker: ado-ado).
Parameters: key: below the threshold = too weak to quantify, mostly under pKd 3.1 to 4

Chain of FRMPD4, Q14CM0 (Q14CM0 67-160): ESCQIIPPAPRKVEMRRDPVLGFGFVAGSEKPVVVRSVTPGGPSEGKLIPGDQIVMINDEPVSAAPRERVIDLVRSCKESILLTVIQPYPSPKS

pKd	Binder
3.48	PEEGKKQSQC [GAGE12J, A6NER3]

The binders below were run against GOPC, Q9HD26 (assay: holdup assay). Conditions: plain residues with an end cap or a label only (N-terminal biotin on a linker: ado-ado).
Parameters: key: below the threshold = too weak to quantify, mostly under pKd 3.1 to 4

pKd	Binder
below the threshold	PEEGKKQSQC [GAGE12J, A6NER3]

These binders were tested against GORASP2, Q9H8Y8 (assay: holdup assay). Conditions: plain residues with an end cap or a label only (N-terminal biotin on a linker: ado-ado).
Parameters: key: below the threshold = too weak to quantify, mostly under pKd 3.1 to 4

pKd	Binder
below the threshold	PEEGKKQSQC [GAGE12J, A6NER3]

These binders were tested against GRID2IP_2, A4D2P6 (assay: holdup assay). Conditions: plain residues with an end cap or a label only (N-terminal biotin on a linker: ado-ado).
Parameters: key: below the threshold = too weak to quantify, mostly under pKd 3.1 to 4

Chain of GRID2IP_2, A4D2P6 (A4D2P6 272-370): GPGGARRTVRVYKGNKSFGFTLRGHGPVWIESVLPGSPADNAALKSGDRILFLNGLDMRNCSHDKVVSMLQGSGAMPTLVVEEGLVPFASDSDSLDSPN

pKd	Binder
3.49	PEEGKKQSQC [GAGE12J, A6NER3]

What follows are binders tested against T7, GRIP1_2, Q9Y3R0 (assay: holdup assay). Conditions: plain residues with an end cap or a label only (N-terminal biotin on a linker: ado-ado).
Parameters: key: below the threshold = too weak to quantify, mostly under pKd 3.1 to 4

pKd	Binder
below the threshold	PEEGKKQSQC [GAGE12J, A6NER3]

The binders below were run against T8, GRIP1_5, Q9Y3R0 (assay: holdup assay). Conditions: plain residues with an end cap or a label only (N-terminal biotin on a linker: ado-ado).
Parameters: key: below the threshold = too weak to quantify, mostly under pKd 3.1 to 4

pKd	Binder
below the threshold	PEEGKKQSQC [GAGE12J, A6NER3]

The binders below were run against IL16_1, Q14005 (assay: holdup assay). Conditions: plain residues with an end cap or a label only (N-terminal biotin on a linker: ado-ado).
Parameters: key: below the threshold = too weak to quantify, mostly under pKd 3.1 to 4

Chain of IL16_1, Q14005 (Q14005 210-306): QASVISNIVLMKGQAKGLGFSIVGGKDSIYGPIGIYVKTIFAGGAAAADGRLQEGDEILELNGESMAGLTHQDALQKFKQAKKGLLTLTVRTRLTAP

pKd	Binder
below the threshold	PEEGKKQSQC [GAGE12J, A6NER3]

These binders were tested against IL16_3, Q14005 (assay: holdup assay). Conditions: plain residues with an end cap or a label only (N-terminal biotin on a linker: ado-ado).
Parameters: key: below the threshold = too weak to quantify, mostly under pKd 3.1 to 4

Chain of IL16_3, Q14005 (Q14005 1107-1207): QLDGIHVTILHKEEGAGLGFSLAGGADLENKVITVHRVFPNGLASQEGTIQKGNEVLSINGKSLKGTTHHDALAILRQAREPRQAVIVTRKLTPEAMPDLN

pKd	Binder
below the threshold	PEEGKKQSQC [GAGE12J, A6NER3]

The binders below were run against LNX1_1, Q8TBB1 (assay: holdup assay). Conditions: plain residues with an end cap or a label only (N-terminal biotin on a linker: ado-ado).
Parameters: key: below the threshold = too weak to quantify, mostly under pKd 3.1 to 4

Chain of LNX1_1, Q8TBB1 (Q8TBB1 261-371): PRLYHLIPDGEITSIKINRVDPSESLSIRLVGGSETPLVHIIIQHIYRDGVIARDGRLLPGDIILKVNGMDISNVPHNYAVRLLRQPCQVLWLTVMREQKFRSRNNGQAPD

pKd	Binder
below the threshold	PEEGKKQSQC [GAGE12J, A6NER3]

Each binder was assayed against LNX1_2, Q8TBB1 (assay: holdup assay). Conditions: plain residues with an end cap or a label only (N-terminal biotin on a linker: ado-ado).
Parameters: key: below the threshold = too weak to quantify, mostly under pKd 3.1 to 4

Chain of LNX1_2, Q8TBB1 (Q8TBB1 371-470): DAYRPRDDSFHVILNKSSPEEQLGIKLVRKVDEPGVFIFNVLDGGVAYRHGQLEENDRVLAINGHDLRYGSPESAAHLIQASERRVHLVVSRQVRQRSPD

pKd	Binder
below the threshold	PEEGKKQSQC [GAGE12J, A6NER3]

What follows are binders tested against T9, MPDZ_5, O75970 (assay: holdup assay). Conditions: plain residues with an end cap or a label only (N-terminal biotin on a linker: ado-ado).
Parameters: key: below the threshold = too weak to quantify, mostly under pKd 3.1 to 4

pKd	Binder
below the threshold	PEEGKKQSQC [GAGE12J, A6NER3]

These binders were tested against T10, MPP2, Q14168 (assay: holdup assay). Conditions: plain residues with an end cap or a label only (N-terminal biotin on a linker: ado-ado).
Parameters: key: below the threshold = too weak to quantify, mostly under pKd 3.1 to 4

pKd	Binder
below the threshold	PEEGKKQSQC [GAGE12J, A6NER3]

These binders were tested against T11, NHERF3_3, Q5T2W1 (assay: holdup assay). Conditions: plain residues with an end cap or a label only (N-terminal biotin on a linker: ado-ado).
Parameters: key: below the threshold = too weak to quantify, mostly under pKd 3.1 to 4

pKd	Binder
below the threshold	PEEGKKQSQC [GAGE12J, A6NER3]

These binders were tested against NHERF4_4, Q86UT5 (assay: holdup assay). Conditions: plain residues with an end cap or a label only (N-terminal biotin on a linker: ado-ado).
Parameters: key: below the threshold = too weak to quantify, mostly under pKd 3.1 to 4

Chain of NHERF4_4, Q86UT5 (Q86UT5 464-550): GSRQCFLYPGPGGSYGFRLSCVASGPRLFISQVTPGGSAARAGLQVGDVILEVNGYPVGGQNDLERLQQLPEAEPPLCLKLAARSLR

pKd	Binder
below the threshold	PEEGKKQSQC [GAGE12J, A6NER3]

What follows are binders tested against T12, SNTB1, Q13884 (assay: holdup assay). Conditions: plain residues with an end cap or a label only (N-terminal biotin on a linker: ado-ado).
Parameters: key: below the threshold = too weak to quantify, mostly under pKd 3.1 to 4

pKd	Binder
below the threshold	PEEGKKQSQC [GAGE12J, A6NER3]

Each binder was assayed against TJP1_3, Q07157 (assay: holdup assay). Conditions: plain residues with an end cap or a label only (N-terminal biotin on a linker: ado-ado).
Parameters: key: below the threshold = too weak to quantify, mostly under pKd 3.1 to 4

Chain of TJP1_3, Q07157 (Q07157 416-512): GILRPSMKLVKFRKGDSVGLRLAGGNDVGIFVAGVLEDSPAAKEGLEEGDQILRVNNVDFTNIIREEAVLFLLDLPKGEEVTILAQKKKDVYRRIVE

pKd	Binder
below the threshold	PEEGKKQSQC [GAGE12J, A6NER3]
